One molecule from patent publication US20090253622A1, “USE OF TLR3 AGONISTS FOR THE TREATMENT OF NEURODEGENERATIVE DISORDERS” (Nederlandse Organisatie voor toegepast - …, priority 2006, published 2009) can be followed below.

Entries after “also recorded” stand apart in the source; their conditions may differ.

One data set has as its system human adult astrocytes. The experiment in a line: cDNA array profiling of cytokine, chemokine and growth factor genes in human adult astrocytes. Format: cell-based. As to the method:
Adult human astrocytes from post-mortem subcortical white matter samples were isolated and cultured as previously described (Bsibsi et al., J Neuropath Exp Neurol 61:1013-1021 [2002]). […] When indicated astrocytes were stimulated with 50 μg/mL poly I:C (Amersham Pharmacia Biotech, Piscataway, N.J.) or 200 ng/mL LPS (Sigma-Aldrich, Steinheim, Germany) to activate TLR3 and TLR4, respectively. […] It should be noted that contaminants in the commercial LPS preparation could possibly lead to some level of TLR2 activation in addition to TLR4 by the LPS preparation used but not of TLR3. When stimulated with cytokines, astrocytes were supplied with TNF-α, IFN-γ, IL-1β (each at 500 U/mL), IL-4 (at 250 U/mL), IL-6 (at 200 U/mL), IL-12 (at 50 ng/mL), IL-10 (at 20 ng/mL) and TGF-β (at 12.5 ng/mL) (PeproTech, Rocky Hill, N.Y.). […] Endothelial cells (UVEC) were isolated from umbillical cords and cultured on gelatin-coated dishes in M199 supplemented with 20 nM HEPES, 10% human serum, 10% heat-inactivated NBCS, 150 mg/mL ECGF, 5 U/mL heparin, 100 IU/mL penicillin and […] streptomycin.
Analysis of the mRNA profile of astrocytes was performed by hybrid selection of ^32P-labeled cDNA on Clontech human cytokine/chemokine Atlas® arrays as previous described (Meeuwsen et al., Glia 43:243-253 [2003]). Hybridization signals for each of the 268 cytokine, chemokine and growth factor (receptor) genes were calculated as the mean of duplicate measurements, corrected for background intensity and quantified using software provided by the manufacturer. Relative expression was calculated by dividing these hybridization signals by the mean signal for all nine housekeeping reference genes on the corresponding array.
Gene profiling was performed using astrocytes from four different control donors.
Astrocytes were isolated from post mortem human brain tissue samples and cultured under conditions as described elsewhere in this application. One part of the culture was stimulated with 50 μg/ml stathmin, the second with 50 μg/ml poly I:C and a third was left untreated to served as a reference control. Following another 48 h RNA was isolated from each culture and ^32P-labeled cDNA was prepared by reverse transcription. Subsequent hybrid selection of these ^32P-labeled cDNA samples was performed on Clontech Atlas® arrays containing selective probes for 268 cytokines, chemokines and growth factors, and various receptors for these mediators. All hybridization signals were calculated as the mean of duplicate measurements, corrected for background intensity and quantified using software provided by the manufacturer. Relative signal strength was next calculated by dividing these averaged hybridization signals by the mean signal for all nine housekeeping reference genes that were also present on each array as a reference.

Data set [1] concerns peripheral blood mononuclear cells (PBMC). The experiment in a line: CXCL8 accumulation in culture of human PBMC. Type of data set: cell-based. The following applies: 24 h, varying doses, two donors. From the text: (§1) Peripheral blood mononuclear cells (PBMC) were isolated from two healthy blood donors and from part of the cells, CD14^+ monocytes were isolated by positive selection using magnetic beads coated with an antibody against CD14. The purified CD14^+ monocytes were subsequently cultured for 5 days in the presence of IL-4 and granulocyte-macrophage colony stimulating factor (GM-CSF). These growth factors induce differentiation of monocytes into pre-dendritic cells (pre-DC) within this time frame. At this stage part of the pre-DC culture was stimulated with a mixture of IL-1β and TNF-α for another 2 days in culture, thus stimulating final maturation of the cells into plasmacytoid dendritic cells (DC).
(§2) Using this differentiation method, separate populations of PBMC, pre-DC and DC were generated and after washing of the cells to remove all previously used stimuli, cells were subsequently re-cultured in fresh medium and tested for their response to either poly I:C, stathmin or LPS. Accumulation of CXCL8 in the culture medium over a 24-h period was used as a measure for cellular activation.

Data set [2] has as its system pre-dendritic cells (pre-DC). Briefly: CXCL8 accumulation in culture of human pre-dendritic cells. Type of data set: cell-based. The settings on record: 24 h, varying doses, two donors.
Text: as §1, §2

Data set [3] in a line: Circular dichroism spectroscopy, helical content. The following applies: dissolved in 50% TFE in PBS, without dialysis. Type of data set: physicochemical. On the procedure: Purified recombinant stathmin was exposed to two different conditions that differentially affect the extent of helix formation within the protein chain. One part of the protein preparation was exposed to 5% trifluoroacetic acid (TFA) in water for 1 h at 37° C., strongly acidic conditions that tend to disrupt an alpha helix. […] […] Next, the samples were analyzed by […] circular dichroism spectroscopy that allows calculation of helical content on the basis of elipticity in the absorption of circularly polarized light. In both cases, another part of the dialyzed sample was tested in parallel for induction of TLR3-mediated release of CXCL8 (IL-8) in human astrocytes as described elsewhere in this application.
Background: Circular dichroism is widely used to follow secondary structure.

Data set [4] has as its system plasmacytoid dendritic cells (DC). Briefly: CXCL8 accumulation in culture of human mature plasmacytoid dendritic cells. Format: cell-based. The settings on record: 24 h, varying doses, two donors.
Text: as §1, §2

A further data set has as its system human microglia. Briefly: CXCL8 accumulation in cultures of human microglia (ELISA). Format: cell-based. The settings on record: microglia from gray or white matter, 24 h. On the procedure:
Using either gray matter samples or white matter samples of post mortem adult human brains collected within 9 h after death, several cultures of microglia were produced as previously described. Microglia were subsequently stimulated with different TLR agonists and after 24 h accumulation of CXCL8 in the culture medium was quantified using a commercial ELISA assay, as a measure of TLR-mediated activation.
For orientation: ELISA stands for enzyme-linked immunosorbent assay.

In the next data set the test system is TLR3. The experiment in a line: CXCL8 release by cultured human astrocytes (ELISA). Type of data set: cell-based. As to the method:
Cos-7 cells (25,000 cells per well in 96-well plates) were transfected for 5 h with 768 pools of cDNA derived from human brain tumours (5 pooled tumours including meningioma, oligodendroglioma, astrocytoma grades II and IV, and medulloblastoma; NCI CGAP Brn35; Invitrogen) using lipofectamine, after which cells were thoroughly washed. Transfection with green-fluorescent protein-encoding cDNA was used as an internal control for transfection efficiencies. After continued culture of the transfected cells for 48 h, 75 μL of each culture supernatant was harvested and added to cultured human astrocytes seeded at 1,000 cells per well in 75 μL. After 48 h of culture, supernatants were harvested and evaluated for CXCL8 release using ELISA. Stimulation of astrocytes with poly I:C served as positive controls for CXCL8 release in all cases, non-transfected Cos 7 culture supernatants as negative controls.
Purified recombinant stathmin was exposed to two different conditions that differentially affect the extent of helix formation within the protein chain. One part of the protein preparation was exposed to 5% trifluoroacetic acid (TFA) in water for 1 h at 37° C., strongly acidic conditions that tend to disrupt an alpha helix. In parallel, another part was exposed for 1 h at 37° C. to 5% of the helix-promoting solvent trifluoroethanol (TFE) in phosphate-buffered saline (PBS). After exposure to these different conditions, both protein samples were extensively dialysed for 48 h against several changes of PBS. Next, the samples were analyzed by […] circular dichroism spectroscopy that allows calculation of helical content on the basis of elipticity in the absorption of circularly polarized light. In both cases, another part of the dialyzed sample was tested in parallel for induction of TLR3-mediated release of CXCL8 (IL-8) in human astrocytes as described elsewhere in this application.

B1: stathmin: cytosolic phosphoprotein of 149 amino acids (SEQ ID NO: 1); purified recombinant human stathmin from a commercial source (protein)
chain: MASSDIQVKELEKRASGQAFELILSPRSKESVPEFPLSPPKKKDFSLEEIQKKLEAAEERRKSHEAEVLKQLAEKREHEKEVLQKAIEENNNFSKMAEEKITHKMEANKENREAQMAAKLERLREKDKHIEEVRKNKESKDPADETEAD
modifications: Human; (44)..(138) Stathmin-like alpha helix domain
notes: purified recombinant human stathmin from a commercial source
Take B1: the “change in expression of genes encoding immune mediators and growth factors” value in the data set with human adult astrocytes (50 μg/ml, 48 h) is “comprehensive and marked change in expression”. For the same molecule, the stathmin-induced mediators result with human adult astrocytes (astrocytes (TLR3 on the cell surface), qualitative summary) is “CNTF, LIF; also recorded: TSG-6, IL-9, IL10, IL-11, IL-5; also recorded: VEGF, VEGF-C, CXCL8; also recorded: CCL2, CCL3, CXCL9”. For the same molecule, the “CXCL8 accumulation in the culture medium” value is “substantial increase in CXCL8 accumulation” in data set [1], “substantial increase in CXCL8 accumulation” in data set [2], “substantial increase in CXCL8 accumulation” in data set [4] and “enhanced CXCL8 accumulation” in the data set with human microglia. The helical content in data set [3] came out at 98%. In addition, the “astrocyte CXCL8 response, dose dependence” value in the data set with TLR3 (at 100 μg/mL) is given as “still not maximal”. Moreover, in the data set with TLR3 (doses between 5 and 100 μg/mL, four donors), the “CXCL8 release by cultured human astrocytes (in words)” value is reported as “marked CXCL8 release”. The “stathmin-induced response under TLR3-directed small interfering RNA” value in the data set with TLR3 (human astrocytes, three TLR3 siRNAs) was “largely—in one case completely—inhibited”.
